Laboratory results taken from patent US20220112288A1 (published 2022).
Numbering of substitutions follows the chain as printed. One block for each binder: values may come before it.

Tests used:
[1] = biological target: T1, human CD4 on the surface of SKW3 cells or human PBMCs (human, UniProt P01730 26-458); assay: FACS confirmation, supernatant on human PBMCs, anti-mouse Fc A647
T1 construct: whole, on cells; SKW3 CD4 knockout cells served as the negative cell line; also called hCD4; SKW3 WT
Method: (§1) FACS Confirmation screens were performed for primary screening positive hybridomas using human PBMCs in addition to SKW3/SKW3 CD4 KO cell lines. PBMCs were thawed and resuspended to 8E6/mL in FACS buffer. […] PBMCs were added to the 96 well plates (25 μL/well) and incubated at 4° C. for 30 minutes. […] Cells were washed twice before acquired by IQUE3 Flow Cytometer and analyzed with FORECYT software (Sartorius). Primary parameter used to assess confirmation was CD4 positive percent of viable cells. […] SKW3 gMFI binding was used as secondary parameter to assess confirmation.

[2] = biological target: T1, human CD4 on the surface of SKW3 cells …; assay: FACS confirmation, supernatant on human PBMCs, anti-mouse Fc A647, CD4+ gate
Method: as §1

[3] = biological target: T1, human CD4 on the surface of SKW3 cells …; assay: FACS confirmation, supernatant on SKW3 WT cells, anti-mouse Fc A647; background gMFI 3300
[4] = biological target: T1, human CD4 on the surface of SKW3 cells …; assay: FACS confirmation, supernatant on SKW3 WT cells, anti-human kappa FITC; background gMFI 2500
[5] = biological target: T1, human CD4 on the surface of SKW3 cells …; assay: FACS primary screen, non-clonal hybridoma supernatant, SKW3 vs SKW3 CD4 KO cells, anti-mouse Fc A647
Method: (§2) FACS cell binding. αCD4 antibody producing hybridomas were identified by cell surface CD4 binding using FACS. For primary screening SKW3 (human T-ALL) was used as the CD4 positive cell line and SKW3 CD4 knockout (KO) as the negative cell line, respectively. SKW3 KO cells were labeled with Tag-it Violet (BioLegend) at RT for 15 min. After removing extra dye by washing cells with FACS buffer (1% BSA/1 mM EDTA/0.05% NaN3 in PBS) equal number of SKW3 and labeled SKW3 CD4 KO cells were combined, washed, and resuspended in FACS buffer at 8E6 cells/6 mL. […] Cells (˜20K/15 μL/well) were added to the supernatant and incubated at 4° C. for 30 minutes. […] Cells were washed twice before acquired by IQUE3 Flow Cytometer and analyzed with FORECYT software (Sartorius). Positive wells were selected with the following criteria: Over 2-fold selective binding to SKW3 cell line relative to SKW3 CD4 KO with over 10% signal above background binding with anti-human Kappa. Hybridomas from primary screening positive wells were transferred to 96 well plates.

[6] = biological target: T1, human CD4 on the surface of SKW3 cells …; assay: FACS primary screen, non-clonal hybridoma supernatant, SKW3 vs SKW3 CD4 KO cells, anti-human kappa FITC
Method: as §2

[7] = biological target: T1, human CD4 on the surface of SKW3 cells …; assay: FACS binning on SKW3 cells; competitor OKT4-Alexa Fluor 488 (its signal read); background 2163, max binding 8200
Method: (§3) αCD4 containing hybridoma supernatants were binned against three comparator antibodies by FACS using SKW3 cells, which endogenously express human CD4 protein. Briefly, SKW3 cells were incubated with saturated hybridoma supernatant for 30 minutes at 4° C.

[8] = biological target: T1, human CD4 on the surface of SKW3 cells …; assay: FACS binning on SKW3 cells; competitor RPA-T4-PE-Dazzle 594 (its signal read); background 783, max binding 15000
Method: as §3

huCD4-HIS = biological target: T2, huCD4-HIS (human, UniProt P01730 26-390, limits assumed); assay: ELISA binning; competitor ibalizumab; 100 ng/mL huCD4-HIS, anti-HIS HRP detection; background 45, max binding 3000000
T2 construct: not shown: HIS tag

[9] = biological target: T1, human CD4 on the surface of SKW3 cells …; assay: FACS binning on SKW3 cells; competitor OKT4a, anti-human A647 secondary (its signal read); background 5000, max binding 35000
Method: as §3

B3: 75110_07H07A (antibody, V domains shown)
VH: EVQVVESGGGLVQPGGSLRLSCAASGFTFSSYWMSWVRQAPGKGLEWVANIKEEGSEKYYVDSVKGRFTISRDNAKNSLYLQMNSLRAEDTAVYYCVREGGQWLALDYWGQGTLVTVSS
VL: DIQMTQSPSSVSGSVGDRVTITCRASQGISSWLAWYQQKPGKAPKLLIFGASSLQSGVPSRFSGSGSGTDFTLTISSLQPEDFATYYCQQANSFPWTFGQGTKVQIK
notes: Tested here as non-clonal hybridoma supernatant from AlivaMab Mouse Kappa mice (detected with anti-mouse Fc and anti-human kappa)
PBMCs, anti-mFc 647 CD4+ Percent Bound of Viable [1]: 27%
PBMCs, anti-mFc 647 CD4+ gate - RL1 Binding [2]: 234000
SKW3 WT anti-mFc 647, gMFI [3]: 34300 gMFI
SKW3 WT anti-hu Kappa FITC, gMFI [4]: 8510 gMFI
SKW3 WT vs KO anti-mFc-647 [5]: 5.7 ratio
SKW3 WT vs KO anti-hKappa-FITC [6]: 2.3 ratio
OKT4 A488 signal [7]: 2060
RPA-T4-PE-Dazzle 594 signal [8]: 14900
Ibalizumab ELISA binning signal (huCD4-HIS): 2.11e+06
OKT4a anti-hu A647 Secondary signal [9]: 39400

B4: 75110_04B08A (antibody, V domains shown)
VH: QVQLVESGGGVVQPGRSLRLSCTASGFNFINYGIHWVRQAPGKGLEWVTIIWYDGSKKYYADSVKGRFAISRDNSKNTLYLQMNSLRAEDTAVYYCAREDDWNDGLAYWGQGTLVTVSS
VL: AIQMTQSPSSLSASVGDRVTITCRASQDIRNDLGWYQQKPGKAPNLLIYAASNLQSGVPSRFSGSGSGTDFTLTISSLQPEDFATYYCLQDSNYPRTFGQGTKVEIK
notes: as for B3
PBMCs, anti-mFc 647 CD4+ Percent Bound of Viable [1]: 29%
PBMCs, anti-mFc 647 CD4+ gate - RL1 Binding [2]: 274000
SKW3 WT anti-mFc 647, gMFI [3]: 22600 gMFI
SKW3 WT anti-hu Kappa FITC, gMFI [4]: 6160 gMFI
SKW3 WT vs KO anti-mFc-647 [5]: 6.7 ratio
SKW3 WT vs KO anti-hKappa-FITC [6]: 2.3 ratio
OKT4 A488 signal [7]: 3170
RPA-T4-PE-Dazzle 594 signal [8]: 14900
Ibalizumab ELISA binning signal (huCD4-HIS): 1.95e+06
OKT4a anti-hu A647 Secondary signal [9]: 43400

B5: 75110_02E08A (antibody, V domains shown)
VH: QVQLQESGPGLVKPSETLSLTCTVSGGSISTYYWTWIRQPAGKGLEWIGRVYTSGDTNYNPSLKSRVAMSLDTSKNQFSLKLSSVTAADTAVYYCARDSGALYSWNYGDAFDIWGQGTMVTVSS
VL: DIQMTQSPSAMSASVGDRVTITCRASQDISNYLAWFQQKPGKVPKRLIYAASSLQSGVPSRFSGSGSGTEFTLTISSLQPEDFATYYCLQHNSYPRTFGQGTKVEIK
notes: as for B3
PBMCs, anti-mFc 647 CD4+ Percent Bound of Viable [1]: 31%
PBMCs, anti-mFc 647 CD4+ gate - RL1 Binding [2]: 317000
SKW3 WT anti-mFc 647, gMFI [3]: 30900 gMFI
SKW3 WT anti-hu Kappa FITC, gMFI [4]: 7260 gMFI
SKW3 WT vs KO anti-mFc-647 [5]: 8.4 ratio
SKW3 WT vs KO anti-hKappa-FITC [6]: 3.1 ratio
OKT4 A488 signal [7]: 3320
RPA-T4-PE-Dazzle 594 signal [8]: 13500
Ibalizumab ELISA binning signal (huCD4-HIS): 335000
OKT4a anti-hu A647 Secondary signal [9]: 41500

B6: 75110_10L22A (antibody, V domains shown)
VH: EVQLVESGGGLVQPGGSLRLSCAASGFTFSSYDMHWVRQATGKGLEWVSTIGTAGDTYYPGSVKGRFTISRENAKNSLYLQMNGLRAGDTAVYYCARGNYFYYGVDVWGQGTTVTVSS
VL: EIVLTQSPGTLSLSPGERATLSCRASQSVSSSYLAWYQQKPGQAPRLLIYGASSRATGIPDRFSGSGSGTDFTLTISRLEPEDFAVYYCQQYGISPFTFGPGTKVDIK
notes: as for B3
PBMCs, anti-mFc 647 CD4+ Percent Bound of Viable [1]: 31%
PBMCs, anti-mFc 647 CD4+ gate - RL1 Binding [2]: 283000
SKW3 WT anti-mFc 647, gMFI [3]: 27600 gMFI
SKW3 WT anti-hu Kappa FITC, gMFI [4]: 7020 gMFI
SKW3 WT vs KO anti-mFc-647 [5]: 3.4 ratio
SKW3 WT vs KO anti-hKappa-FITC [6]: 2.1 ratio
OKT4 A488 signal [7]: 2850
RPA-T4-PE-Dazzle 594 signal [8]: 15000
Ibalizumab ELISA binning signal (huCD4-HIS): 1.88e+06
OKT4a anti-hu A647 Secondary signal [9]: 45900

Continued, in another order:

PBMCs, anti-mFc 647 CD4+ gate - RL1 Binding [2]: 264000
SKW3 WT anti-mFc 647, gMFI [3]: 18000 gMFI
SKW3 WT anti-hu Kappa FITC, gMFI [4]: 5360 gMFI
SKW3 WT vs KO anti-mFc-647 [5]: 4 ratio
SKW3 WT vs KO anti-hKappa-FITC [6]: 2 ratio
OKT4 A488 signal [7]: 4020
RPA-T4-PE-Dazzle 594 signal [8]: 14800
Ibalizumab ELISA binning signal (huCD4-HIS): 2.2e+06
OKT4a anti-hu A647 Secondary signal [9]: 42000
B1: 75110_12H17A (antibody, V domains shown)
VH: B3 VH with V4L, S31D, E54D, S56N, Y80F, V97A, T113A
VL: B3 VL with G13A, L46F, F49S, S63T, Q105E
notes: as for B3
PBMCs, anti-mFc 647 CD4+ Percent Bound of Viable [1]: 29%

PBMCs, anti-mFc 647 CD4+ gate - RL1 Binding [2]: 244000
SKW3 WT anti-mFc 647, gMFI [3]: 22800 gMFI
SKW3 WT anti-hu Kappa FITC, gMFI [4]: 6550 gMFI
SKW3 WT vs KO anti-mFc-647 [5]: 5.2 ratio
SKW3 WT vs KO anti-hKappa-FITC [6]: 2.4 ratio
OKT4 A488 signal [7]: 2620
RPA-T4-PE-Dazzle 594 signal [8]: 14600
Ibalizumab ELISA binning signal (huCD4-HIS): 1.74e+06
OKT4a anti-hu A647 Secondary signal [9]: 34400
B2: 75110_12H19A (antibody, V domains shown)
VH: EVQLVESGGGLVQPGGSLRLSCAASGFTFSSYWMSWVRQAPGQGLEWVANINEDGNEKYHVDSVKGRLTISRDNAKNSLYLQMNSLRGVDTAVYFCAREGGQWLALDYWGQGALVTVSS
VL: B3 VL with G13A, T20S, F49Y, S53G, Q105E
notes: as for B3
PBMCs, anti-mFc 647 CD4+ Percent Bound of Viable [1]: 27%
